These results are taken from patent US20200270125.

For this series, the target named is ST-pro-factor D-His, P00746.
Chain of ST-pro-factor D-His, P00746 (P00746 whole entry, looked up): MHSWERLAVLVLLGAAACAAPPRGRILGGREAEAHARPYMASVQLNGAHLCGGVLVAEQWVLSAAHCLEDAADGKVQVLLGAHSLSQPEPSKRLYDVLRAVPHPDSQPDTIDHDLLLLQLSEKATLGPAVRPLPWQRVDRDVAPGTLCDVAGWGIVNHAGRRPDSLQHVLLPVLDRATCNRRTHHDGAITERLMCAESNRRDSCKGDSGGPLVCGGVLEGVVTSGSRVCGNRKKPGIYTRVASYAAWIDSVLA

B1: recombinant full-length human MASP-3 (protein)
chain: HTVELNNMFGQIQSPGYPDSYPSDSEVTWNITVPDGFRIKLYFMHFNLESSYLCEYDYVKVETEDQVLATFCGRETTDTEQTPGQEVVLSPGSFMSITFRSDFSNEERFTGFDAHYMAVDVDECKEREDEELSCDHYCHNYIGGYYCSCRFGYILHTDNRTCRVECSDNLFTQRTGVITSPDFPNPYPKSSECLYTIELEEGFMVNLQFEDIFDIEDHPEVPCPYDYIKIKVGPKVLGPFCGEKAPEPISTQSHSVLILFHSDNSGENRGWRLSYRAAGNECPELQPPVHGKIEPSQAKYFFKDQVLVSCDTGYKVLKDNVEMDTFQIECLKDGTWSNKIPTCKIVDCRAPGELEHGLITFSTRNNLTTYKSEIKYSCQEPYYKMLNNNTGIYTCSAQGVWMNKVLGRSLPTCLPECGQPSRSLPSLVKRIIGGRNAEPGLFPWQALIVVEDTSRVPNDKWFGSGALLSASWILTAAHVLRSQRRDTTVIPVSKEHVTVYLGLHDVRDKSGAVNSSAARVVLHPDFNIQNYNHDIALVQLQEPVPLGPHVMPVCLPRLEPEGPAPHMLGLVAGWGISNPNVTVDEIISSGTRTLSDVLQYVKLPVVPHAECKTSYESRSGNYSVTENMFCAGYYEGGKDTCLGDSGGAFVIFDDLSQRWVVQGLVSWGGPEECGSKQVYGVYTKVSNYVDWVWEQMGLPQSVVEPQVER
B1: the “cleavage of pro-factor D (Western blot)” value was “only full length MASP-3 (lane 2) and the MASP-1 CCP1-CCP2-SP) fragment (lane 5) cleaved ST-pro-factor D-His6”.

B2: recombinant human MASP-1 (CCP1-CCP2-SP) fragment, active (protein)
chain: GNECPELQPPVHGKIEPSQAKYFFKDQVLVSCDTGYKVLKDNVEMDTFQIECLKDGTWSNKIPTCKIVDCRAPGELEHGLITFSTRNNLTTYKSEIKYSCQEPYYKMLNNNTGIYTCSAQGVWMNKVLGRSLPTCLPVCGLPKFSRKLMARIFNGRPAQKGTTPWIAMLSHLNGQPFCGGSLLGSSWIVTAAHCLHQSLDPKDPTLRDSDLLSPSDFKIILGKHWRLRSDENEQHLGVKHTTLHPKYDPNTFENDVALVELLESPVLNAFVMPICLPEGPQQEGAMVIVSGWGKQFLQRFPETLMEIEIPIVDHSTCQKAYAPLKKKVTRDMICAGEKEGGKDACSGDSGGPMVTLNRERGQWYLVGTVSWGDDCGKKDRYGVYSYIHHNKDWIQRVTGVRN
As to B2, the “cleavage of pro-factor D (Western blot)” value is “only full length MASP-3 (lane 2) and the MASP-1 CCP1-CCP2-SP) fragment (lane 5) cleaved ST-pro-factor D-His6”.
